What was measured:
[1] = test system: human breast cancer cell lines, isolated from patient blood samples; experiment: Growth of breast cancer cell cultures in presence of scFv; type: cell-based; settings: 2 μM scFv, 4 days after seeding
BMS breast cancer cells = experiment: Tumor cell arrest during blood flow; type: cell-based; settings: 3 μM scFv, human blood, collagen I matrix, shear rate 50 s^−1
Method: FIGS. 3A, 3B, 3C, 3D, 3E. scFv Bc-12 and Bc-15 inhibit αvβ3 mediated adhesive breast cancer cell functions. (A) Adhesion of BMS human breast cancer cells to fibrinogen (Fg), vitronectin (VN) or type I collagen (Col I) in the absence or presence of 3 μM Bc-12, Bc-15 or their RGE mutants Mut-12, Mut-15, compared to 200 μM GRGDSPK peptide (SEQ ID NO: 11). Protein coating concentrations: 10 μg/ml (VN, Col I) or 20 μg/ml (Fg). Adhesion time: 30 min at 37° C. (B) Effect of scFvs on haptotactic BMS cell migration toward a fibrinogen substrate (16 hrs at 37° C. in transwell chambers with or without 2 μM Bc-12, Bc-15 or their RGE mutants Mut-12 or Mut-15, compared to 200 μM GRGDSPK peptide) (SEQ ID NO: 11). (C) Effect of scFvs on breast cancer cell arrest during blood flow. Metastatic BMS cells, labeled with hydroethidine, were suspended in human blood (anticoagulated with 50 nM PPACK) and perfused over a collagen I matrix at a venous wall shear rate of 50 s^−1. Under these conditions, breast cancer cells arrest by αvβ3 mediated binding to adherent, thrombus forming platelets. Tumor cell adhesion was quantified by image acquisition at 30 predefined positions during blood flow. Left: representative images of platelet signal (thrombi, green fluorescence) and tumor cell signal (red fluorescence) at identical x,y positions. […]
Tumor cell arrest during bloodflow. Breast cancer cell arrest during blood flow and interaction with platelets was measured as described. […] Adhesive events and cell interactions were visualized and recorded by fluorescence video microscopy and quantified by image acquisition at 30 predefined positions followed by computerized image analysis (MetaMorph, Universal Imaging). Tumor cells were stained with hydroethidine (red fluorescence) (20 μg/ml, 30 min, 37° C.), washed, and mixed with blood containing 10 μM mepacrine (green fluorescence). Blood cells, tumor cells, and platelets acquired green fluorescence and were visualized at 488/515 nm (excitation/emission). Tumor cells were identified by their unique red fluorescence at 543/590 nm. […]

| Molecule | growth of breast cancer cell lines [1] | breast cancer cell arrest during blood flow (BMS breast cancer cells) |
| --- | --- | --- |
| Bc-12: patient derived human scFv antibody against activated αvβ3 with RGD motif in CDR-H3; cDNA ATCC PTA-6303 (protein) scFv: MAQVQLVQSGAEVKKPGASVKVSCKASGYTFSNYGITWVRQAPGQGLEWMGWINNGNTHYAQKFQGRVTMTTDTSTSTAYMELRSLRSDDTAVYYCARDPRGDDEPYWGQGTLVTVSSGGGGSGGGGSGGGGSEIVLTQSPLSLPVTLGQPASISCRSSQNLVYSDGNTYLSWFQQRPGQSPRRLIYKVSNRDSGVPDRFSGSGSGTDFTLKISRVEAEDIGVYYCMQGTHWPPRTFGQGTKVEIKRGLGGLVDYKDDDDK | retarded | efficiently inhibited |
| Mut-12: RGE containing mutant version of scFv Bc-12 (protein) MAQVQLVQSGAEVKKPGASVKVSCKASGYTFSNYGITWVRQAPGQGLEWMGWINNGNTHYAQKFQGRVTMTTDTSTSTAYMELRSLRSDDTAVYYCARDPRGEDEPYWGQGTLVTVSSGGGGSGGGGSGGGGSEIVLTQSPLSLPVTLGQPASISCRSSQNLVYSDGNTYLSWFQQRPGQSPRRLIYKVSNRDSGVPDRFSGSGSGTDFTLKISRVEAEDIGVYYCMQGTHWPPRTFGQGTKVEIKRGLGGLVDYKDDDDK | no effect | no effect |
